Source: PMC10413161

Tests used:
[1] = target: human complement C1r, zymogen form (human) (UniProt P00736)
[2] = target: Borrelia hermsii strain HS1 FbpC C-terminal domain, residues 212-374 (Borrelia hermsii strain HS1); assay: SPR; FbpC-C, FbpC-C R248A or FbpC-C H252A immobilised by amine coupling on a CMD200 chip (1138.2, 975.2, 1082 RU); zymogen or active C1r injected, single-cycle five-fold dilution series 0.16 to 100 nM; Biacore T200, 25 °C, 30 μl/min; HBS-T (10 mM Hepes pH 7.3, 140 mM NaCl, 0.005% Tween 20) with 5 mM CaCl2; kinetic fits, triplicate
[3] = target: Borrelia hermsii strain HS1 FbpC C-terminal domain, residues 212-374, R248A (Borrelia hermsii strain HS1); assay: as above
[4] = target: Borrelia hermsii strain HS1 FbpC C-terminal domain, residues 212-374, H252A (Borrelia hermsii strain HS1); assay: as above

Molecule | CP hemolysis of presensitized sheep erythrocytes (2% normal human serum), IC50 [1] | CP-specific complement ELISA (C4b deposition, 2% normal human serum), IC50 [1] | Kd [2] | koff [2] | kon [2] | Kd [3] | koff [3] | kon [3] | Kd [4] | koff [4] | kon [4]
Borrelia hermsii strain HS1 FbpC C-terminal domain, residues 212-374 (domain or fragment) | 320 nM | 8.6 nM |  |  |  |  |  |  |  |  | 
Borrelia hermsii strain HS1 FbpC C-terminal domain, residues 212-374, R248A (domain or fragment) | 1200 nM | 23 nM |  |  |  |  |  |  |  |  | 
Borrelia hermsii strain HS1 FbpC C-terminal domain, residues 212-374, H252A (domain or fragment) |  | 300 nM |  |  |  |  |  |  |  |  | 
human complement C1r, zymogen form (enzyme) SIPIPQKLFGEVTSPLFPKPYPNNFETTTVITVPTGYRVKLVFQQFDLEPSEGCFYDYVKISADKKSLGRFCGQLGSPLGNPPGKKEFMSQGNKMLLTFHTDFSNEENGTIMFYKGFLAYYQAVDLDECASRSKSGEEDPQPQCQHLCHNYVGGYFCSCRPGYELQEDTHSCQAECSSELYTEASGYISSLEYPRSYPPDLRCNYSIRVERGLTLHLKFLEPFDIDDHQQVHCPYDQLQIYANGKNIGEFCGKQRPPDLDTSSNAVDLLFFTDESGDSRGWKLRYTTEIIKCPQPKTLDEFTIIQNLQPQYQFRDYFIATCKQGYQLIEGNQVLHSFTAVCQDDGTWHRAMPRCKIKDCGQPRNLPNGDFRYTTTMGVNTYKARIQYYCHEPYYKMQTRAGSRESEQGVYTCTAQGIWKNEQKGEKIPRCLPVCGKPVNPVEQRQRIIGGQKAKMGNFPWQVFTNIHGRGGGALLGDRWILTAAHTLYPKEHEAQSNASLDVFLGHTNVEELMKLGNHPIRRVSVHPDYRQDESYNFEGDIALLELENSVTLGPNLLPICLPDNDTFYDLGLMGYVSGFGVMEEKIAHDLRFVRLPVANPQACENWLRGKNRMDVFSQNMFCAGHPSLKQDACQGDSGGVFAVRDPNTDRWVATGIVSWGIGCSRGYGFYTKVLNYVDWIKKEMEEED |  |  | 1.2 nM | 5.4e-05 s⁻¹ | 44000 M⁻¹ s⁻¹ | 13 nM | 0.00063 s⁻¹ | 69000 M⁻¹ s⁻¹ |  |  | 
human complement C1r, activated form (enzyme) SIPIPQKLFGEVTSPLFPKPYPNNFETTTVITVPTGYRVKLVFQQFDLEPSEGCFYDYVKISADKKSLGRFCGQLGSPLGNPPGKKEFMSQGNKMLLTFHTDFSNEENGTIMFYKGFLAYYQAVDLDECASRSKSGEEDPQPQCQHLCHNYVGGYFCSCRPGYELQEDTHSCQAECSSELYTEASGYISSLEYPRSYPPDLRCNYSIRVERGLTLHLKFLEPFDIDDHQQVHCPYDQLQIYANGKNIGEFCGKQRPPDLDTSSNAVDLLFFTDESGDSRGWKLRYTTEIIKCPQPKTLDEFTIIQNLQPQYQFRDYFIATCKQGYQLIEGNQVLHSFTAVCQDDGTWHRAMPRCKIKDCGQPRNLPNGDFRYTTTMGVNTYKARIQYYCHEPYYKMQTRAGSRESEQGVYTCTAQGIWKNEQKGEKIPRCLPVCGKPVNPVEQRQRIIGGQKAKMGNFPWQVFTNIHGRGGGALLGDRWILTAAHTLYPKEHEAQSNASLDVFLGHTNVEELMKLGNHPIRRVSVHPDYRQDESYNFEGDIALLELENSVTLGPNLLPICLPDNDTFYDLGLMGYVSGFGVMEEKIAHDLRFVRLPVANPQACENWLRGKNRMDVFSQNMFCAGHPSLKQDACQGDSGGVFAVRDPNTDRWVATGIVSWGIGCSRGYGFYTKVLNYVDWIKKEMEEED |  |  | 0.3 nM | 1.4e-05 s⁻¹ | 48000 M⁻¹ s⁻¹ | 0.19 nM | 9.4e-06 s⁻¹ | 45000 M⁻¹ s⁻¹ | 2.4 nM | 0.00012 s⁻¹ | 51000 M⁻¹ s⁻¹
